Results on 2 substances are retold here after article PMC12808120.

pKd: −log10 of the molar value. Where only a bound is given, the exact number is not on record here.

Usually pKd stands for the negative decadic logarithm of the Kd, by convention in mol/L.

The target of series [1] is IGF2BP3 (recombinant) (UniProt O00425). As to the kind of experiment: filter binding. To be noted: FBA/EMSA: 10 mM Tris-Cl pH 7.5, 50 mM KCl, 1 mM EDTA, 0.05% Triton X, 5% glycerol, 1 mM DTT, 37 C 20 min, pull-down: lysate mixed 1:1 with 2x TENT (100 mM Tris …). For orientation: Mobility shift assays separate free from complexed probe on a gel.
The target is the same in series [2]. As to the kind of experiment: EMSA. Conditions: no binding up to 100 nM; Kd >>100 nM; FBA/EMSA: 10 mM Tris-Cl pH 7.5, 50 mM KCl, 1 mM EDTA, 0.05% Triton X, 5% glycerol, 1 mM DTT, 37 C 20 min; pull-down: lysate mixed 1:1 with 2x TENT (100 mM Tris …).

IGF2BP3 (recombinant), sequence (O00425 whole entry): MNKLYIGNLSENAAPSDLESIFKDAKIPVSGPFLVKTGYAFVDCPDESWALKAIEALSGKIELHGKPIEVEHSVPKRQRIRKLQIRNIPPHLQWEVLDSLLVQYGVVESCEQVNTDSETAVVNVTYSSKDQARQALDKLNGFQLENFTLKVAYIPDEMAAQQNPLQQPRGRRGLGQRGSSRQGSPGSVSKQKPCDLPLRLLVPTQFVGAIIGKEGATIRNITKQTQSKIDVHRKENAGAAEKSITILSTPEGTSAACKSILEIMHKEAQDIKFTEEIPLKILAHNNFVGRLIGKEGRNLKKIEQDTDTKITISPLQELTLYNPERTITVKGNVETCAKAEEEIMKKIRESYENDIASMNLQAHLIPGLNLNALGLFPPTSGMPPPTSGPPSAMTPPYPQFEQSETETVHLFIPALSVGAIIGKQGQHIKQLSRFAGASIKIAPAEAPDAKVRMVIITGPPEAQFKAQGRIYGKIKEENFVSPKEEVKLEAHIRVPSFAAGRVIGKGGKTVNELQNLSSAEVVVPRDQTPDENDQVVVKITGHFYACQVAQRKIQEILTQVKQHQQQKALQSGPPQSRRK

On to “FMR1-5'UTR RNA with 16 CGG repeats (FMR1-16CGG)”, for which, in series [1], the pKd is 8.50.
For “UAAUAAUAAUAAUAAUAAUAAUAAUAAUAAUAAUAAUAAUAAUAAUAAUAAUAAUAAUAA [(UAA)20 RNA]”, the pKd was below 7.00 in series [1] (no binding up to 100 nM, Kd >>100 nM) and below 7.00 in series [2].
